Results published in patent publication US20190338048A1 (published 2019).
Substitutions are numbered along the chain they refer to. Numbers in names are those of the source. Like-named read-outs stand apart in the source and are kept apart here.

Experiments:
Recombinant human IL-17A [1] = biological target: Recombinant human IL-17A (human, UniProt Q16552 20-155, limits assumed); assay: SPR
Target sequence in this assay (Q16552 20-155 limits assumed): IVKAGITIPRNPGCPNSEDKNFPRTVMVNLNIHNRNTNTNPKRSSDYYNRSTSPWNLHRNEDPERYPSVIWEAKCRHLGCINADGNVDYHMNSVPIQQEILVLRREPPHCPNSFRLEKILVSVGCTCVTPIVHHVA

Recombinant human IL-17A [2] = biological target: Recombinant human IL-17A (human, UniProt Q16552 20-155, limits assumed); assay: SPR; remark: listed apart in the source
Target sequence in this assay (Q16552 20-155 limits assumed): as above

[3] = biological target: T1, His-tagged recombinant human CD-19 (human, UniProt P15391 20-291, limits assumed); assay: SPR
T1 sequence (looked up): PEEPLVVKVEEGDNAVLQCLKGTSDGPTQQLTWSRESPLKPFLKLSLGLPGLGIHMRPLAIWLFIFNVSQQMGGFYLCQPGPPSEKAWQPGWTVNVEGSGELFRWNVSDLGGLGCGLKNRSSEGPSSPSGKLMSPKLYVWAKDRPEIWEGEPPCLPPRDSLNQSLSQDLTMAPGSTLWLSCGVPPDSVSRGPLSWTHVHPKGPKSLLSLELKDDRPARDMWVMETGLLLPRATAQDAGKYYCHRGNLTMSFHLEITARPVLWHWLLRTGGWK

[4] = biological target: T1, His-tagged recombinant human CD-19; assay: SPR; remark: listed apart in the source
[5] = biological target: His-tagged Influenza B Hemagglutinin (B/Brisbane/60/2008) (Influenza B virus (B/Brisbane/60/2008)); assay: SPR
[6] = biological target: His-tagged Influenza B Hemagglutinin (B/Brisbane/60/2008) (Influenza B (B/Brisbane/60/2008)); assay: SPR
[7] = biological target: T2, His-tagged recombinant human CD-19 (human, UniProt P15391 20-291, limits assumed); assay: SPR; remark: listed apart in the source
T2 sequence (looked up): T1 sequence (looked up)

[8] = biological target: T3, His-tagged recombinant human CD-19 (human, UniProt P15391 20-291, limits assumed); assay: SPR; remark: listed apart in the source
T3 sequence (looked up): T1 sequence (looked up)

[9] = biological target: T4, Recombinant HER2 protein (HER2-ECD) (UniProt P04626 23-652, limits assumed); assay: SPR, Fab captured, HER2 as analyte
[10] = biological target: T4, Recombinant HER2 protein (HER2-ECD); assay: SPR
[11] = biological target: Pertuzumab heavy chain Fab construct (H2) Q39E (VH Q39E); assay: LCCA, SPR tag read-out
[12] = biological target: Pertuzumab heavy chain Fab construct (H2) Q39D (VH Q39D); assay: LCCA, SPR tag read-out
[13] = biological target: CAT-2200 heavy chain Fab construct (H1) Q39K (VH Q39K); assay: LCCA, SPR tag read-out
[14] = biological target: Pertuzumab heavy chain Fab construct (H2) Q39E (VH Q39E); assay: LCCA, SPR tag read-out; remark: listed apart in the source
[15] = biological target: Pertuzumab heavy chain Fab construct (H2) Q39D (VH Q39D); assay: LCCA, SPR tag read-out; remark: listed apart in the source
[16] = biological target: CAT-2200 heavy chain Fab construct (H1), wild type; assay: LCCA, SPR tag read-out
[17] = biological target: Pertuzumab heavy chain Fab construct (H2) Q39E (VH Q39E); assay: LCCA, SPR tag read-out; remark: listed apart in the source
[18] = biological target: Pertuzumab heavy chain Fab construct (H2) Q39D (VH Q39D); assay: LCCA, SPR tag read-out; remark: listed apart in the source
[19] = biological target: CAT-2200 heavy chain Fab construct (H1) Q39K (VH Q39K); assay: LCCA, SPR tag read-out; remark: listed apart in the source
Recombinant human IL-17A [20] = biological target: Recombinant human IL-17A (human, UniProt Q16552 20-155, limits assumed); assay: SPR; remark: listed apart in the source
Target sequence in this assay (Q16552 20-155 limits assumed): as the sequence (Q16552 20-155 limits assumed) above

[21] = biological target: CAT-2200 heavy chain Fab construct (H1) Q39R (VH Q39R); assay: LCCA, SPR tag read-out
[22] = biological target: CAT-2200 heavy chain Fab construct (H1) Q39R (VH Q39R); assay: LCCA, SPR tag read-out; remark: listed apart in the source

B1: CAT-2200 Fab heterodimer H1L1, no pairing substitutions (wild-type H1 and L1), light chain with FLAG tag (Fab, V domains shown, not shown: small tags and cut ends)
VH: not shown
VL: NFMLTQPHSVSESPGKTVTISCTRSSGSLANYYVQWYQQRPGSSPTIVIFANNQRPSGVPDRFSGSIDSSSNSASLTISGLKTEDEADYYCQTYDPYSVVFGGGTKLTVLG
Question: With B1 as the binder, how does the “Change in KD of H1L1 Fab vs wild type” value (Recombinant human IL-17A [1]) read?
Answer: 0

B2: CAT-2200 Fab heterodimer H1L1 of designs 10662-10731 and 10662-10733 (H1 L45F, L1 unmodified) (Fab, name in Kabat numbering, V domains shown, not shown: small tags and cut ends)
VH: EVQLLESGGGLVQPGGSLRLSCAASGFTFSSYAMSWVRQAPGKGFEWVSAISGSGGSTYYADSVKGRFTISRDNSKNTLYLQMNSLRAEDTAVYYCARDLIHGVTRNWGQGTLVTVSS
VL: B1 VL
Question: With B2 as the binder, how does the Kd (Recombinant human IL-17A [2]) read?
Answer: 0.29 nM

B3: Design 2979 bispecific antibody, System C (CR8071 H1/L1 & SGN-CD19a H2/L2) (bispecific antibody)
chain 1: QVQLVQSGAEVKKPGASVRVSCRASGYIFTESGITWVRQAPGQGLEWMGWISGYSGDTKYAQKLQGRVTMTKDTSTTTAYMELRSLRYDDTAVYYCARDVQYSGSYLGAYYFDYWSPGTLVTVSSASTKGPSVFPLAPSSKSTSGGTAALGCLVKDYFPEPVTVSWNSGALTSGVHTFPAVLQSSGLYSLKSVVTVPSSSLGTQTYICNVNHKPSNTKVDKKVEPKSCDKTHTCPPCPAPELLGGPSVFLFPPKPKDTLMISRTPEVTCVVVDVSHEDPEVKFNWYVDGVEVHNAKTKPREEQYNSTYRVVSVLTVLHQDWLNGKEYKCKVSNKALPAPIEKTISKAKGQPREPQVYVYPPSRDELTKNQVSLTCLVKGFYPSDIAVEWESNGQPENNYKTTPPVLDSDGSFALVSKLTVDKSRWQQGNVFSCSVMHEALHNHYTQKSLSLSPG
chain 2: not shown
chain 3: not shown
chain 4: EIVLTQSPATLSLSPGERATLSCSASSSVSYMHWYQQKPGQAPRLLIYDTSKLASGIPARFSGSGSGTDFTLTISSLEPEDFAVYYCFQGSVYPFTFGQGTKLEIKRTVAAPSVFIFPPSDEQLKSGTARVGCLLNNFYPREAKVQWKVDNALQSGNSQESVTEQDSKDSTYSLRSTLTLSKADYEKHKVYACEVTHQGLSSPVTKSFNRGEC
Question: How did the “Difference in H2L2 log(KD) from wild type” value [3] turn out when B3 was run?
Answer: 0.7

Question: And the Kd [4]?
Answer: 45.1 nM

Question: What about the Kd [5] of the same binder?
Answer: 0.93 nM

B4: Design 4320 bispecific antibody, System C (CR8071 H1/L1 & SGN-CD19a H2/L2) (bispecific antibody)
chain 1: B3 chain 1 with L153K, F178G, K191S
chain 2: not shown
chain 3: not shown
chain 4: B3 chain 4 with Q123K, R130S, G132V, L134A, R175S, T177R
Question: B4 was tested. Which Kd [6] did it give?
Answer: 0.49 nM

Question: What about the Kd [7] of the same binder?
Answer: 258 nM

B5: Design 4040 SGN-CD19a H2L2 arm in OAA (one-armed antibody) format (antibody, V domains shown)
VH: QVTLRESGPALVKPTQTLTLTCTFSGFSLSTSGMGVGWIRQPPGKAPEWLAHIWWDDDKRYNPALKSRLTISKDTSKNQVVLTMTNMDPVDTAAYYCARMELWSYYFDYWGQGTLVTVSS
VL: EIVLTQSPATLSLSPGERATLSCSASSSVSYMHWYQQKPGQAFRLLIYDTSKLASGIPARFSGSGSGTDFTLTISSLEPEDFAVYYCFQGSVYPFTFGQGTKLEIKR
Question: Which Kd [8] does the source give for B5 here?
Answer: 22.4 nM

B6: Pertuzumab Fab heterodimer H2L2 of design 10674-10749 (H2 Q39K, L2 Q38E) (Fab, name in Kabat numbering, V domains shown, not shown: small tags and cut ends)
VH: EVQLVESGGGLVQPGGSLRLSCAASGFTFTDYTMDWVRKAPGKGLEWVADVNPNSGGSIYNQRFKGRFTLSVDRSKNTLYLQMNSLRAEDTAVYYCARNLGPSFYFDYWGQGTLVTVSS
VL: DIQMTQSPSSLSASVGDRVTITCKASQDVSIGVAWYQEKPGKAPKLLIYSASYRYTGVPSRFSGSGSGTDFTLTISSLQPEDFATYYCQQYYIYPYTFGQGTKVEIKR
Question: Which results are given for B6?
Answer: Change in KD of H2L2 Fab vs wild type, -(log(KD_design)-log(KD_wt)) [9]: 0.12 log(KD) difference; Kd [10]: 6.09 nM

B7: Pertuzumab kappa light chain construct (L2) Q38K, HA-tagged (other, not shown: small tags and cut ends)
light: DIQMTQSPSSLSASVGDRVTITCKASQDVSIGVAWYQKKPGKAPKLLIYSASYRYTGVPSRFSGSGSGTDFTLTISSLQPEDFATYYCQQYYIYPYTFGQGTKVEIKRTVAAPSVFIFPPSDEQLKSGTASVVCLLNNFYPREAKVQWKVDNALQSGNSQESVTEQDSKDSTYSLSSTLTLSKADYEKHKVYACEVTHQGLSSPVTKSFNRGEC
Question: For B7, which “H2L2:H2L1 normalized median ratio (H2L2 part)” value [11] is on record?
Answer: 78%

Question: And the “H2L2:H2L1 normalized median scalar value ln(r1/f1)” value [11]?
Answer: 1.29

Question: And the “H2L2:H2L1 normalized median ratio (H2L2 part)” value [12]?
Answer: 79%

Question: And the “H2L2:H2L1 normalized median scalar value ln(r1/f1)” value [12]?
Answer: 1.35

Question: What about the “H1L1:H1L2 normalized median ratio (H1L2 part)” value [13] of the same binder?
Answer: 35%

Question: What about the “H2L2:H2L1 normalized median ratio (H2L2 part)” value [14] of the same binder?
Answer: 47%

Question: What about the “H2L2:H2L1 normalized median scalar value ln(r1/f1)” value [14] of the same binder?
Answer: -0.11

Question: And the “H2L2:H2L1 normalized median ratio (H2L2 part)” value [15]?
Answer: 47%

Question: And the “H2L2:H2L1 normalized median scalar value ln(r1/f1)” value [15]?
Answer: -0.11

Question: What about the “H1L1:H1L2 normalized median ratio (H1L2 part)” value [16] of the same binder?
Answer: 33%

Question: What about the “H2L2:H2L1 normalized median ratio (H2L2 part)” value [17] of the same binder?
Answer: 75%

Question: And the “H2L2:H2L1 normalized median scalar value ln(r1/f1)” value [17]?
Answer: 1.09

Question: And the “H2L2:H2L1 normalized median ratio (H2L2 part)” value [18]?
Answer: 75%

Question: And the “H2L2:H2L1 normalized median scalar value ln(r1/f1)” value [18]?
Answer: 1.09

Question: What about the “H1L1:H1L2 normalized median ratio (H1L2 part)” value [19] of the same binder?
Answer: 29%

B8: Design 4320 bispecific antibody, System A (CAT-2200 H1/L1 & Pertuzumab H2/L2) (bispecific antibody)
chain 1: not shown
chain 2: NFMLTQPHSVSESPGKTVTISCTRSSGSLANYYVQWYQQRPGSSPTIVIFANNQRPSGVPDRFSGSIDSSSNSASLTISGLKTEDEADYYCQTYDPYSVVFGGGTKLTVLGQPKAAPSVFLFPPSSEELQANTATLDCLISDFYPGAVTVAWKADSSPVKAGVETTTPSKQSNNKYAAFSYLSLTPEQWKSHRSYSCQVTHEGSTVEKTVAPTECS
chain 3: not shown
chain 4: B7 light with K38Q, Q124K, L135A, T178R
Question: Which Kd (Recombinant human IL-17A [20]) does the source give for B8 here?
Answer: 0.36 nM

B9: Pertuzumab kappa light chain construct (L2) Q38R, HA-tagged (other, not shown: small tags and cut ends)
light: B7 light with K38R
Question: B9 was tested. Which “H2L2:H2L1 normalized median ratio (H2L2 part)” value [11] did it give?
Answer: 77%

Question: What about the “H2L2:H2L1 normalized median scalar value ln(r1/f1)” value [11] of the same binder?
Answer: 1.19

Question: And the “H2L2:H2L1 normalized median ratio (H2L2 part)” value [12]?
Answer: 92%

Question: What about the “H2L2:H2L1 normalized median scalar value ln(r1/f1)” value [12] of the same binder?
Answer: 2.47

Question: What about the “H1L1:H1L2 normalized median ratio (H1L2 part)” value [21] of the same binder?
Answer: 28%

Question: What about the “H2L2:H2L1 normalized median ratio (H2L2 part)” value [14] of the same binder?
Answer: 48%

Question: What about the “H2L2:H2L1 normalized median scalar value ln(r1/f1)” value [14] of the same binder?
Answer: -0.08

Question: What about the “H2L2:H2L1 normalized median ratio (H2L2 part)” value [15] of the same binder?
Answer: 49%

Question: And the “H2L2:H2L1 normalized median scalar value ln(r1/f1)” value [15]?
Answer: -0.03

Question: What about the “H1L1:H1L2 normalized median ratio (H1L2 part)” value [16] of the same binder?
Answer: 26%

Question: And the “H2L2:H2L1 normalized median ratio (H2L2 part)” value [17]?
Answer: 73%

Question: What about the “H2L2:H2L1 normalized median scalar value ln(r1/f1)” value [17] of the same binder?
Answer: 1.02

Question: What about the “H2L2:H2L1 normalized median ratio (H2L2 part)” value [18] of the same binder?
Answer: 77%

Question: And the “H2L2:H2L1 normalized median scalar value ln(r1/f1)” value [18]?
Answer: 1.19

Question: What about the “H1L1:H1L2 normalized median ratio (H1L2 part)” value [22] of the same binder?
Answer: 23%
